Results as given in patent publication US20250154215A1, “PHARMACEUTICAL COMPOSITION FOR TREATING COLITIS OR COLORECTAL CANCER COMPRISING COLON-TARGETED S100A8/A9-DERIVED SPECIFIC PEPTIDE” (Industry-University Cooperation Foundation Hanyang …, priority 2023, published 2025).
Values belong to the molecule of their own block, whether it stands above or below them. No end group written: not given here.

What was measured:
[1] = tested on: OxaR CRC cells (HT29, HCT116 and SW480); assay: WST-8-based cell viability assay in parental and drug-resistant CRC cell lines; conditions: HT29, HCT116, SW480 OxaR; 24 hours
From the text: To establish a CRC cell model resistant to oxaliplatin, doxorubicin, or 5-FU, HT29, HT116, and SW480 cells were exposed to progressively increasing concentrations of oxaliplatin, doxorubicin, or 5-FU. The established oxaliplatin, doxorubicin, and 5-FU resistant cells were named OxaR, DoxR, and 5-FuR cells, respectively.
To confirm the inhibitory effect of rCT-S100A8/A9 on oxaliplatin resistance, the present inventors performed a water-soluble tetrazolium-8 (WST-8)-based cell viability assay using parental cells of three CRC cell lines, HT29, HCT-116 and SW480, and their corresponding oxaliplatin-resistant (OxaR) cell lines. OxaR CRC cells (HT29, HCT116 and SW480) were established by long-term exposure of CRC cells to oxaliplatin as described in Example 1.

[2] = The results of in vitro plasma stability, microsomal stability, CYP inhibition and PK profile of S100A8/A9 peptides and rCT-S100A8/A9 proteins; conditions: mouse, plasma, ip, 1 mg/kg
Experimental: Table printed on a drawing sheet, Fig. 5B
Title: The results of in vitro plasma stability, microsomal stability, CYP inhibition and PK profile of S100A8/A9 peptides and rCT-S100A8/A9 proteins
The patent's description of the figure: FIGS. 5A and 5B show the drug-like properties of rCT-S100A8/A9. […] Bacteria-purified 6×His-rCT-S100A8/9, rVehicle or rCT was analyzed by Coomassie staining or IB using αHis (bottom, left). BMDMs were incubated with rVehicle, rCT, or rCT-S100A8/9 for the indicated times and at the indicated concentrations, and then cell viability was measured by MTT assay (bottom, right). […] HLM, human liver microsomes; CYP, cytochrome P450. aTmax, arrival time; AUClast, total area under the plasma concentration-time curve from time 0 to the time of the last measurement; Cmax, maximum plasma concentration;
First reader's note: All values were measured after ip dosing of 1 mg/kg in mice (n = 5); the footnote for the raised a is not printed on the sheet, and the title stands once above both tables.

[3] = molecular target: T1, endogenous RAGE of mouse BMDMs and mouse colon (mouse, UniProt Q62151 23-402); assay: co-IP from colon lysates of acute colitis, chronic colitis and CRC mice (IP αRAGE, IB αS100A8), FIG. 1D
T1 construct: whole, on cells; Endogenous protein, immunoprecipitated with αRAGE from BMDM or colon lysates; also called receptor for advanced glycation end products
Experimental: (§1) The 293T cells were used for immunoprecipitation (IP) including αMyc, and then for immunoblotting (IB) including αHA or αHis. […] Bone marrow-derived macrophages (BMDMs) were incubated with rHA-S100A8 or rHis-S100A9 (5 μg/ml) for 10 minutes. The BMDMs were subjected to IP using αTLR4 (FIG. 1A, right) or αRAGE (FIG. 1B, right), and then subjected to IB using αHA, αHis, αTLR4, or αRAGE. The WCLs were used for IB including αHA, αHis, αTLR4, αRAGE, or αActin. In FIG. 1C, on the left, relative expression of S100A8 or S100A9 in colons of normal, acute colitis, chronic colitis, and colorectal cancer mice was determined, and biological replicates (n=10) were used for each condition. On the right, IB was performed on sera from normal, acute colitis, chronic colitis, and colorectal cancer mice using αS100A8 or αS100A9. Coomassie blue (CB)-stained gels show consistent loading of serum proteins. Data from 3 out of 10 samples is shown. […] The WCLs were used for IB including αS100A8, αS100A9, αTLR4, αRAGE, or αActin. Data is representative of seven independent experiments with similar results (FIGS. 1A-1D);
(§2) 293T, BMDMs, and THP-1 cells were treated as indicated and processed for analysis by GST pulldown, Western blotting, and co-IP analysis. For GST pulldown, 293T cells were harvested and lysed in an NP-40 buffer including a complete protease inhibitor cocktail (Roche, Basel, Switzerland). […]

[4] = molecular target: T2, endogenous TLR4 of mouse BMDMs and mouse colon (mouse, UniProt Q9QUK6 26-835); assay: co-IP from mouse colon lysates (IP αTLR4, IB αS100A8), FIG. 1D
T2 construct: whole, on cells; Endogenous protein, immunoprecipitated with αTLR4 from BMDM or colon lysates; also called toll-like receptor 4
T2 sequence (looked up): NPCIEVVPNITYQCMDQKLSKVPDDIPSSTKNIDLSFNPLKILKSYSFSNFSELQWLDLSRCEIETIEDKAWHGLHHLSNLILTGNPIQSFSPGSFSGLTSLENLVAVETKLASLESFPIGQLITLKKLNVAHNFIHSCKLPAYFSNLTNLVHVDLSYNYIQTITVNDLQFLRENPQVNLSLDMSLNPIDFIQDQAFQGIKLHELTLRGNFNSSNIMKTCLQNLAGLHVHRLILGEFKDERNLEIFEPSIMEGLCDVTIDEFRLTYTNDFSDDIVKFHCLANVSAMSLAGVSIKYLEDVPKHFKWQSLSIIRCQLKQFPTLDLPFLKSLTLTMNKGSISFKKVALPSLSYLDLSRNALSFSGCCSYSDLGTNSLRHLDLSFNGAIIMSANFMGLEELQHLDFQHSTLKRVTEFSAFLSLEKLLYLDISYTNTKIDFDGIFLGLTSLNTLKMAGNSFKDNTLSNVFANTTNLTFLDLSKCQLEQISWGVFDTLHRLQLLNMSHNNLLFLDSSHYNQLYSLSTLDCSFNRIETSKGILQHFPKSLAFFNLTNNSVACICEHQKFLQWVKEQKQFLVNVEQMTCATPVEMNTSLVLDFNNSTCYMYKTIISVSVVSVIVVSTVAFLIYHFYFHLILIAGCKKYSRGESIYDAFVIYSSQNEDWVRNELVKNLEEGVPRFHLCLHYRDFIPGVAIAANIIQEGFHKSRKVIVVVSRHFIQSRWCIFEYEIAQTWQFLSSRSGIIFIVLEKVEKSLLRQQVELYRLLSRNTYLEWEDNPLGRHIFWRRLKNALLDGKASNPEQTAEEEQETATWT
Experimental: as §1, §2

[5] = molecular target: T1, endogenous RAGE of mouse BMDMs and …; assay: co-IP in BMDMs incubated with recombinant protein at 5 µg/ml (IP αRAGE, IB αHA), FIG. 1B
Experimental: as §1, §2

[6] = molecular target: T2, endogenous TLR4 of mouse BMDMs and …; assay: co-IP in BMDMs incubated with recombinant protein at 5 µg/ml (IP αTLR4, IB αHA), FIG. 1A
Experimental: as §1, §2

[7] = molecular target: T2, endogenous TLR4 of mouse BMDMs and …; assay: co-IP in BMDMs incubated with recombinant protein at 5 µg/ml (IP αTLR4, IB αHis), FIG. 1A
Experimental: as §1, §2

[8] = molecular target: T1, endogenous RAGE of mouse BMDMs and …; assay: co-IP in BMDMs incubated with recombinant protein at 5 µg/ml (IP αRAGE, IB αHis), FIG. 1B
Experimental: as §1, §2

TLR4 or RAGE = assay: Co-IP of recombinant S100A8 or S100A9 with endogenous TLR4 or RAGE in BMDMs; format: binding, mouse; conditions: 5 μg/ml, 10 minutes
Experimental: 293T, BMDMs, and THP-1 cells were treated as indicated and processed for analysis by GST pulldown, Western blotting, and co-IP analysis. For GST pulldown, 293T cells were harvested and lysed in an NP-40 buffer including a complete protease inhibitor cocktail (Roche, Basel, Switzerland). After centrifugation, the supernatant was pre-cleared using protein A/G beads for two hours at 4° C. The pre-cleared lysates were mixed with a 50% slurry of glutathione-conjugated Sepharose beads (Amersham Biosciences, Amersham, UK), and binding reactions were performed for four hours at 4° C. by incubating the lysates at 4° C. The precipitate was extensively washed with a lysis buffer. Proteins bound to the glutathione beads were eluted by boiling for five minutes in a sodium dodecyl sulfate (SDS) loading buffer. For IP, cells were harvested and lysed in an NP-40 buffer supplemented with a complete protease inhibitor cocktail (Roche, Switzerland). […] For immunoblotting (IB), polypeptides were analyzed by SDS-polyacrylamide gel electrophoresis and transferred to polyvinylidene difluoride (PVDF) membranes (Bio-Rad, Hercules, CA, USA). […] Antibody binding was visualized by chemiluminescence (ECL; Millipore, Burlington, MA, USA) and detected using a Vilber chemiluminescence analyzer (Fusion SL 3; Vilber Lourmat). […]

[9] = molecular target: T1, endogenous RAGE of mouse BMDMs and …; assay: co-IP from colon lysates of acute colitis, chronic colitis and CRC mice (IP αRAGE, IB αS100A9), FIG. 1D
Experimental: as §1, §2

[10] = molecular target: T2, endogenous TLR4 of mouse BMDMs and …; assay: co-IP from colon lysates of acute colitis, chronic colitis and CRC mice (IP αTLR4, IB αS100A9), FIG. 1D
Experimental: as §1, §2

T1 sequence (Q62151 23-402): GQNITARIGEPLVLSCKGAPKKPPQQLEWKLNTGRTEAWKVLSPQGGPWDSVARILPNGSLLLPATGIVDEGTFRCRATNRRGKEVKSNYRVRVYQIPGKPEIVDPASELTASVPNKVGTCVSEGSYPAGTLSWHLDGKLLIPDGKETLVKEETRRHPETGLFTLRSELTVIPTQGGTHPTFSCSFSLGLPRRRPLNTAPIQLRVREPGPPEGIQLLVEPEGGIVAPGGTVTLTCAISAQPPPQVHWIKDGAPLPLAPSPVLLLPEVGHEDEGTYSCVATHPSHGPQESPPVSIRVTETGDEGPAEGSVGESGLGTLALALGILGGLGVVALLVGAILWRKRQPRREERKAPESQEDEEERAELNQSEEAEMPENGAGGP

Molecule: O=C1[O][Pt]2([NH][C@@H]3CCCC[C@H]3[NH]2)[O]C1=O [oxaliplatin, reference compound]
cell viability of OxaR CRC cells [1]: significant resistance to oxaliplatin treatment

Molecule: FLVIKGGAHKSHKGGITIITFGGGHHGG [S100A8/A9]
Cmax ([2]; read-out: PK parameters (ip, 1 mg/kg, mice (n = 5))^a | Cmax): 102 ± 41.2 ng/mL | half-life ([2]; read-out: PK parameters (ip, 1 mg/kg, mice (n = 5))^a | T1/2 (converted)): 25.2 ± 30.6 min

B4: rHis-mS100A9: recombinant His-tagged S100A9 protein (protein)
chain: ANKAPSQMERSITTIIDTFHQYSRKEGHPDTLSKKEFRQMVEAQLATFMKKEKRNEALINDIMEDLDTNQDNQLSFEECMMLMAKLIFACHEKLHENNPRGHGHSHGKGCGK
modifications: left off: small tags and cut ends
notes: recombinant His-tagged S100A9 protein
binding to PRRs (TLR4 and RAGE) (TLR4 or RAGE): stronger binding to PRRs (TLR4 and RAGE) than rHA-mS100A8

Other lines, results leading:

binding result [3]: binds | binding result [4]: binds
B1: endogenous mouse S100A8 (ligand, UniProt P27005 2-89, looked up)
chain: PSELEKALSNLIDVYHNYSNIQGNHHALYKNDFKKMVTTECPQFVQNINIENLFRELDINSDNAINFEEFLAMVIKVGVASHKDSHKE
notes: Endogenous protein detected with αS100A8 in co-immunoprecipitates

binding result [5]: binds | binding result [6]: binds
B2: rHA-mS100A8 (ligand)
chain: PSELEKALSNLIDVYHNYSNIQGNHHALYKNDFKKMVTTECPQFVQNINIENLFRELDINSDNAINFEEFLAMVIKVGVASHKDSHKE
notes: Recombinant protein added to BMDMs at 5 µg/ml; also called rHA-S100A8; rS100A8; not shown: HA tag

binding result [7]: binds | binding result [8]: binds
B3: rHis-mS100A9 (ligand)
chain: ANKAPSQMERSITTIIDTFHQYSRKEGHPDTLSKKEFRQMVEAQLATFMKKEKRNEALINDIMEDLDTNQDNQLSFEECMMLMAKLIFACHEKLHENNPRGHGHSHGKGCGK
notes: Recombinant protein added to BMDMs at 5 µg/ml; also called rHis-S100A9; rS100A9; not shown: His tag

binding result [9]: binds | binding result [10]: binds
B5: endogenous mouse S100A9 (ligand, UniProt P31725 2-113, looked up)
chain: ANKAPSQMERSITTIIDTFHQYSRKEGHPDTLSKKEFRQMVEAQLATFMKKEKRNEALINDIMEDLDTNQDNQLSFEECMMLMAKLIFACHEKLHENNPRGHGHSHGKGCGK
notes: Endogenous protein detected with αS100A9 in co-immunoprecipitates
